Experiment [1] deals with T1, CXCR4 (Homo sapiens, UniProt P61073).
T1 construct: expressed in transfected cells
Nature of the experiment: Competition with CXCL12 binding to CXCR4 (real-time fluorescence, eGFP-CXCR4 cells). The procedure: Anti-human CXCR4 (clone 12G5, IgG2a) or anti-human CXCR7 (clone 9C4) monoclonal antibodies (mAbs) were purchased from R&D Systems (Minneapolis, Minn.). […] The human chemokines CXCL12 and CXCL12-TexasRed were synthesized as described (Valenzuela-Fernandez, et al. 2001). The human chemokine CXCL11 was purchased from Clinisciences SAS (France).
Experiments were performed using cells stably expressing eGFP-CXCR4, suspended in HEPES-bovine serum albumin buffer (10 mM HEPES, 137.5 mM NaCl, 1.25 mM MgCl2, 1.25 mM CaCl2, 6 mM KCl, 10 mM glucose, 0.4 mM NaH2PO4, 0.1% bovine serum albumin (w/v), pH 7.4) (typically at 10^6 cells/mL). Time-based recordings of the fluorescence emitted at 510 nm (excitation at 470 nm) were performed at 21° C. using a spectrofluorimeter and sampled every 0.3 s. Fluorescence binding measurements were initiated by adding at 30 s 100 nM of CXCL12-TR to the 1 mL cell suspension. For competition experiments, EGFP-CXCR4 expressing cells were preincubated for 10 min in the absence or presence of various concentrations of unlabelled drugs. Then, CXCL12-TR (100 nM) was added and fluorescence was recorded until equilibrium was reached (300 s). Data were analyzed using Kaleidagraph 3.08 software (Synergy Software, Reading, Pa., USA).

Experiment [2] has as its target T2, CXCR4 (Mus musculus, UniProt P70658).
T2 construct: from tissue; host or cells: live mice (C57Bl/6J for mobilization)
The experiment can be described thus: Asthma mouse model (OVA challenge). The settings on record: mice, i.p., allergen challenge with OVA. In kind it is in vivo. Here is the method:
Mice were sensitized by intraperitoneal (i.p.) injection on days 0, 1 and 2 of 50 μg ovalbumin (OVA, Sigma-Aldrich, A5503) adsorbed on 2 mg aluminium hydroxide (Sigma-Aldrich, 23918-6) in saline. Mice were challenged by intranasal (i.n.) instillation of 10 μg OVA in 25 μl saline (12.5 μl/nostril) or saline alone for control mice on days 5, 6 and 7 under anesthesia (50 mg/kg ketamine and 3.3 mg/kg xylazine, i.p.). the peptide of SEQ ID NO 16 or ALB409-423 in saline were administered i.p. (16 μmol/kg) two hours before each OVA challenge. Bronchoalveolar lavage (BAL) and differential cell counts were performed 24 h after the last OVA challenge as previously reported in (Rebber et al., 2012).

The next experiment relates to X4 HIV-1 strains. The procedure:
(§1) Antiviral screening was performed using the X4 HIV-1 NL4-3 molecular clone.
(§2) HIV-1, HIV-2 and SIV molecular clones differing in coreceptor tropism were generated by transient transfection of 293T cells with proviral DNA by the calcium phosphate method (CalPhos™ Mammalian Transfection Kit, Clon-tech). After overnight incubation, the transfection mixture was replaced by DMEM medium supplemented with 10% FCS, and virus stocks were harvested 48 hrs post-transfection. Subsequently, the culture supernatant was centrifuged for 5 min at 3000 rpm to remove cell debris. The resulting virus stock was quantified by p24 (HIV) or p27 (SIV) antigen ELISA. Virus stocks were either used immediately or stored in aliquots at −80° C.
(§3) TZM-bl reporter cells containing the LacZ reporter gene under the control of the HIV-1 promoter were seeded in 96-well F-bottom microtiter plates (Greiner Bio-One). On the following day, the cells were preincubated with various dilutions of the peptide of SEQ ID NO 16 or its derivatives for 1 hour and subsequently infected with HIV-1, HIV-2, and SIV. Infection rates were determined after 2 days using the one-step Tropix Gal-Screen Kit, as recommended by the manufacturer.

For a further experiment, the system named is X4 tropic HIV-1 NL4-3. The settings on record: blocking X4 tropic HIV-1 NL4-3 infection. The procedure:
as §1, §2, §3

As a reminder, the IC50 is the concentration at which inhibition is half-maximal.

Positions of bridges follow the written chain, without caps; N, C: chain ends. Residues, ends and D or L forms follow the SMILES beside them. Chains are numbered I, II in the order given. No end group written: not given here.

T2 sequence (P70658 whole entry): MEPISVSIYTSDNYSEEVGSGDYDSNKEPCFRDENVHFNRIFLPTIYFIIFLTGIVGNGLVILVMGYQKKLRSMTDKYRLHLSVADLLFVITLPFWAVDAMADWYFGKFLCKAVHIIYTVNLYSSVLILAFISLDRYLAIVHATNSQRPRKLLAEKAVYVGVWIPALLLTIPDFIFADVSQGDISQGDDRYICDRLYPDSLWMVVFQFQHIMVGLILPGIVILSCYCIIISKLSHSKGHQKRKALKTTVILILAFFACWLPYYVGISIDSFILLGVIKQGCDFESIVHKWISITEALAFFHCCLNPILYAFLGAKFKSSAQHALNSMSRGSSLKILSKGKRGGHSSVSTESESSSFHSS
T1 sequence (P61073 whole entry): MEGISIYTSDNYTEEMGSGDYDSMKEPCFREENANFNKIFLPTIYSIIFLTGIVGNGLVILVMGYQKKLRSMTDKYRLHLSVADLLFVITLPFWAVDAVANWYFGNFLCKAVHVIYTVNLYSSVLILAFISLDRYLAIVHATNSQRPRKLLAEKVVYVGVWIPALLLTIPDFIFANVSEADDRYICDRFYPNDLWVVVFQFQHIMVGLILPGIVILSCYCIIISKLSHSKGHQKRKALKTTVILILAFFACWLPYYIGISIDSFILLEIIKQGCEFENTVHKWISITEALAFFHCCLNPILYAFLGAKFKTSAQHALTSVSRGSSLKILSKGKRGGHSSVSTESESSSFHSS

“ALB409-423: ALB409-423, which does not interact with CXCR4; control peptide in the asthma mouse model (VRYTKKVPQVSTPTL) [reference compound]”: the “interaction with CXCR4” value with CXCR4 [1] is listed as “does not interact”. Further, in the experiment with CXCR4 [2], the “CXCR4-dependent infiltration of neutrophils, lymphocytes and eosinophils into the airways” value was “no significant effects”; the infiltration of macrophages result is reported as “no significant effects”.

On to “HSA precursor: highly abundant HSA precursor; the most abundant protein in human plasma, of which the SEQ ID NO 16 peptide is a fragment”, for which the antiretroviral effect result with X4 HIV-1 strains is reported as “no antiretroviral effect”.

`CC[C@H](C)[C@H](N)C(=O)N[C@H](C(=O)N[C@@H](CCCNC(=N)N)C(=O)N[C@@H](Cc1ccc(O)cc1)C(=O)N[C@@H](CO)C(=O)N[C@@H](CCCCN)C(=O)N[C@@H](CCCCN)C(=O)N[C@H](C(=O)N1CCC[C@H]1C(=O)N[C@@H](CCC(N)=O)C(=O)N[C@@H](CSSC[C@H](NC(=O)[C@H](CCC(N)=O)NC(=O)[C@@H]1CCCN1C(=O)[C@@H](NC(=O)[C@H](CCCCN)NC(=O)[C@H](CCCCN)NC(=O)[C@H](CO)NC(=O)[C@H](Cc1ccc(O)cc1)NC(=O)[C@H](CCCNC(=N)N)NC(=O)[C@@H](NC(=O)[C@@H](N)[C@@H](C)CC)C(C)C)C(C)C)C(=O)O)C(=O)O)C(C)C)C(C)C` [408I-418 SC x2, (IVRYSKKVPQC)2] (I: H-IVRYSKKVPQC-OH / II: H-IVRYSKKVPQC-OH; disulfide I:11-II:11; N-terminus and C-terminus assumed) returned a concentration for half-maximal inhibition (IC50) in the experiment with X4 tropic HIV-1 NL4-3 of 0.39 µM.

“LVRYTKKVPQVSTP [Derivative 408-421, LVRYTKKVPQVSTP]” had a half-maximal inhibitory concentration (IC50) in the experiment on X4 tropic HIV-1 NL4-3 of 14 µM. This IC50 is about 36-fold higher than that of the molecule before.

The values are drawn from US10294272B2, “Peptides with antagonistic activities against natural CXCR4” (Pharis Biotec GmbH, priority 2013, dated 2019).
